Source: patent US8927007B2, “Formulations for treatment with glucosinolates” (priority 2010, dated 2015)

Tests used:
[1] = Long-term stability of myrosinase on Concanavalin A-Sepharose gels; type: physicochemical
Protocol: Con-A gel (1 ml) was packed in a 3 ml syringe, washed with 5 portions of 5 ml of 10 mM midazole, 1 mD EDTA, 1 mM DTT, 30% glycerol, pH 6.0. Subsequently, 10 ml of purified myrosinase (2.9 units/ml) (from 7 day-old daikon sprouts as described in Shikita et al. Biochem J. (1999) 341:725-732) were applied to the column and the effluent collected and reapplied to the column 3 more times until no activity was detected in the effluent. After washing 5 times with 5 ml of 33 mM potassium phosphate buffer (pH 6.0), 1 mM EDTA, and 0.5 mM ascorbate, the gel was transferred to a 10 ml syringe and mixed with 10 ml of 10 mM sinigrin in 33 mM potassium phosphate buffer. Aliquots (20 μl of the solution was withdrawn from the mixture every 30 sec., diluted with 0.98 ml of the 33 mM phosphate buffer, and the absorbance was measured at 227 nm against the same buffer. […]

[2] = Activity of myrosinase immobilized on Concanavalin A-Sepharose gel (sinigrin hydrolysis, absorbance at 227 nm); type: biochemical
Protocol: Con-A gel (1 ml) was packed in a 3 ml syringe, washed with 5 portions of 5 ml of 10 mM midazole, 1 mD EDTA, 1 mM DTT, 30% glycerol, pH 6.0. Subsequently, 10 ml of purified myrosinase (2.9 units/ml) (from 7 day-old daikon sprouts as described in Shikita et al. Biochem J. (1999) 341:725-732) were applied to the column and the effluent collected and reapplied to the column 3 more times until no activity was detected in the effluent. After washing 5 times with 5 ml of 33 mM potassium phosphate buffer (pH 6.0), 1 mM EDTA, and 0.5 mM ascorbate, the gel was transferred to a 10 ml syringe and mixed with 10 ml of 10 mM sinigrin in 33 mM potassium phosphate buffer. Aliquots (20 μl of the solution was withdrawn from the mixture every 30 sec., diluted with 0.98 ml of the 33 mM phosphate buffer, and the absorbance was measured at 227 nm against the same buffer. After 10 collections (5 min), the gel was washed with 3 portions of 5 ml of 33 mM potassium phosphate buffer, and 3 portions of 5 ml 10 mM midazole, 1 mM EDTA, 1 mD DTT, 30% glycerol, pH 6.0, and stored at 4° C. for the next test.

myrosinase (β-thioglucoside glucohydrolase) [Immobilized enzyme]
stability without refrigeration ([1]; immobilized on Con-A gels, without refrigeration): stable indefinitely
changes of activity on storage ([1]; over at least the next 7 days, kept at 4° C. in 20% glycerol): no significant changes of activity
stability of immobilized enzyme at room temperature ([1]; room temperature, period of several weeks): stable
elution of the enzyme from the column ([1]; under conditions required for hydrolysis): no significant elution
sinigrin hydrolyzed ([2]; immobilized on Con-A gel, 10 ml of 10 mM sinigrin in 33 mM potassium phosphate buffer, 10 collections (5 min)): more than 25 μmol
enzymatic activity when immobilized on Con-A gels ([2]; immobilized on Con-A gels): retain its enzymatic activity
